The text below walks through data of publication PMC9952435, “Characterization of Two Novel AmpC Beta-Lactamases from the Emerging Opportunistic Pathogen, Cedecea neteri” (Antibiotics, 2023).

Data set [1] has as its target rAmpC CNE-1 from C. neteri SSMD04 (Cedecea neteri, UniProt A0A089PY88). As to conditions: CNE-1 compared with CDA-1 (ref 13).
Data set [2] concerns rAmpC CMH-4 from E. cloacae 13047. Briefly: Assay for ESAC and class B metallo-β-lactamase activity (nitrocefin hydrolysis with clavulanic acid or EDTA). In kind it is biochemical. As to conditions: 2 mM test substance, 500 nM rAmpC, 500 µM nitrocefin, 30 °C, 8 min. As for the experimental part:
(§1) The reactions carried out in the absence and presence of EDTA with purified rAmpC enzymes using the reporter substrate, nitrocefin, were performed. […] The class C β-lactamases are functionally cephalosporinases that are generally resistant to clavulanic acid. However, some AmpCs which show resistance to oxyimino-cephalosporins and are commonly sensitive to clavulanic acid were termed extended-spectrum AmpC β-lactamases (ESAC), similar to the extended-spectrum β-lactamases (ESBLs) of the A class according to the Bush-Jacoby classification. […] To test this aspect of ESAC activity, reactions were performed in the presence of clavulanic acid.
(§2) For each panel, all reactions contained 500 nM rAMpC protein and 500 µM nitrocefin.
(§3) The reactions testing ESBL activity (related to the observation that most ESBL enzymes are inhibited by clavulanic acid) were performed in the absence or presence of 2 mM clavulanic acid. Class B β-Lactamase activity was tested by reactions performed in the absence or presence of 2 mM ethylenediaminetetraacetic acid (EDTA).

For data set [3], the system named is rAmpC CNE-1 from C. neteri SSMD04. Described as above. As to conditions: 2 mM test substance, 500 nM rAmpC, 500 µM nitrocefin, 30 °C, 8 min. The format is biochemical. As for the experimental part:
as §1, §2, §3

Data set [4] has as its system rAmpC CNE-2 from C. neteri 33855. Described as above. The format is biochemical. As to conditions: 2 mM test substance, 500 nM rAmpC, 500 µM nitrocefin, 30 °C, 8 min. As for the experimental part:
as §1, §2, §3

Data set [5] has as its system CDA-1 (AmpC from C. davisae). As to conditions: cited from earlier work.
The target in data set [6] is rAmpC CMH-4 from E. cloacae ATCC 13047 (Enterobacter cloacae subsp. cloacae, UniProt A0A0H3CN55). Nature of the data set: Michaelis-Menten kinetic analysis of substrate hydrolysis by purified rAmpC. As to conditions: CMH-4 compared with E. cloacae P99 AmpC (ref 29).
Data set [7] deals with CO[C@@]1(NC(=O)Cc2cccs2)C(=O)N2C(C(=O)O)=C(COC(N)=O)CS[C@@H]21. Briefly: purified protein, by the assay type. As to conditions: 37.0 °C.
For data set [8], the system named is CC1(C)S[C@@H]2[C@H](NC(=O)[C@H](N)c3ccccc3)C(=O)N2[C@H]1C(=O)O. Briefly: purified protein, by the assay type. As to conditions: 37.0 °C.
For data set [9], the system named is CC1=C(C(=O)O)N2C(=O)[C@@H](NC(=O)[C@H](N)c3ccccc3)[C@H]2SC1. Briefly: purified protein, by the assay type. As to conditions: 37.0 °C.
In data set [10] the test system is Cc1nnc(SCC2=C(C(=O)O)N3C(=O)[C@@H](NC(=O)Cn4cnnn4)[C@H]3SC2)s1. Briefly: purified protein, by the assay type. As to conditions: 37.0 °C.
The test system of data set [11] is O=C(Cc1cccs1)N[C@@H]1C(=O)N2C(C(=O)O)=C(/C=C/c3ccc([N+](=O)[O-])cc3[N+](=O)[O-])CS[C@H]12. Nature of the data set: purified protein, by the assay type. As to conditions: pH 7.0; 30.0 °C.
Data set [12] relates to CO/N=C(\C(=O)N[C@@H]1C(=O)N2C(C(=O)O)=C(COC(N)=O)CS[C@H]12)c1ccco1. Briefly: purified protein, by the assay type. As to conditions: 37.0 °C.
For data set [13], the system named is C[C@@H](O)[C@H]1C(=O)N2C(C(=O)O)=C(SCCN=CN)C[C@H]12. Nature of the data set: purified protein, by the assay type. As to conditions: 37.0 °C.

Usually Km stands for the concentration of substrate that gives half-maximal velocity. One may read the kcat as the number of substrate molecules converted per active site and unit of time at saturation. Usually kcat/Km stands for the second-order rate constant that governs catalysis at low substrate concentration.

Consider `CO[C@@]1(NC(=O)Cc2cccs2)C(=O)N2C(C(=O)O)=C(COC(N)=O)CS[C@@H]21` [Cefoxitin, cefoxitin], for which the “Km, fold higher than for CDA-1 from C. davisae” value in data set [1] was found to be 100 fold.

Consider `O=C(O)CN(CCN(CC(=O)O)CC(=O)O)CC(=O)O` [EDTA, ethylenediaminetetraacetic acid], for which the “Inhibition of nitrocefin hydrolysis” value in data set [2] is given as “hydrolyzed the substrate, nitrocefin, in the presence of EDTA”; in data set [3] it was “hydrolyzed the substrate, nitrocefin, in the presence of EDTA”; in [4], “hydrolyzed the substrate, nitrocefin, in the presence of EDTA”.

Regarding `C[C@@H](O)[C@H]1C(=O)N2C(C(=O)O)=C(SCCN=CN)C[C@H]12` [Imipenem, imipenem], in [5], the Km was around 2 µM.

Regarding `O=C(O)[C@H]1/C(=C/CO)O[C@@H]2CC(=O)N21` [clavulanic acid], the “Inhibition of nitrocefin hydrolysis” value in data set [2] is recorded as “completely inhibited”; in data set [3], “not inhibited”; in data set [4], “not inhibited”.

As to `O=C(Cc1cccs1)N[C@@H]1C(=O)N2C(C(=O)O)=C(/C=C/c3ccc([N+](=O)[O-])cc3[N+](=O)[O-])CS[C@H]12` [nitrocefin], the “kcat, fold less than for AmpC from E. cloacae P99” value in [6] is ~ 100 fold.

Turning to (Cedecea neteri), the Km in [7] stood at 48 µM; in [8], 72 µM; in data set [9] it was 2 µM; in data set [10], 67 µM; in [11], 46 ± 5 µM; in [12], 5 µM. The Km in data set [13] amounted to 5 µM. In data set [11], the kcat stood at 1.93 ± 0.16 s⁻¹. Besides, the kcat/Km in [11] was 41900 M⁻¹ s⁻¹.

With “(Enterobacter cloacae subsp. cloacae ATCC 13047)”, the Km in data set [7] is listed as 12 µM; in data set [8] it was 7 µM; in [9], 6.8 µM; in [11] it was 11 ± 2 µM; in [12], 0.35 µM; in data set [13], 0.85 µM.
